Experiment [1] deals with T1, folate receptor 1 (FOLR1) (human, UniProt P15328 25-234). As to the kind of experiment: flow cytometry, T47D cells.
For experiment [2], the target named is T1, folate receptor 1 (FOLR1). Briefly: flow cytometry, T47D cells. This is another data set of the same source. On the technique in general: A flow cytometer gives signals particle by particle.

Where two headings read alike, the source gives them in different places.

T1 sequence (P15328 25-234): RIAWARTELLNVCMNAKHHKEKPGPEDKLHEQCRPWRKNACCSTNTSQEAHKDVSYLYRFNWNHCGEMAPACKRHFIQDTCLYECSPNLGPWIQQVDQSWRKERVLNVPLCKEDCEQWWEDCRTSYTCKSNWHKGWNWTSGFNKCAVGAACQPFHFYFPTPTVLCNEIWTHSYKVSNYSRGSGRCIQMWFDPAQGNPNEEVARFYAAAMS

B1: huMOV19-14 conjugate (antibody, V domains shown)
VH: QVQLVQSGAEVVKPGASVKISCKASGYTFTGYFMNWVKQSPGQSLEWIGRIHPYDGDTFYNQKFQGKATLTVDKSSNTAHMELLSLTSEDFAVYYCTRYDGSRAMDYWGQGTTVTVSS
VL: DIVLTQSPLSLAVSLGQPAIISCKASQSVSFAGTSLMHWYHQKPGQQPRLLIYRASNLEAGVPDRFSGSGSKTDFTLTISPVEAEDAATYYCQQSREYPYTFGGGTKLEIKR
What is called EC50 is the concentration giving half of the maximal effect. Read a high EC50 as weaker potency. Molecule B1 registered a concentration for a half-maximal effect (EC50) in experiment [1] of 0.379 nM.

B2: huMOV19-90 conjugate (antibody, V domains shown)
VH: B1 VH
VL: B1 VL
In experiment [2], B2 gave an EC50 of 0.371 nM.

These data come from patent US20160082114A1 (published 2016).
